Laboratory results taken from patent US20160274129.

T1: α-fructosyl-valyl-histidyl-leucyl-threonyl-proryl-glutamic acid
T1 chain: VHLTPE

B1: PnFX (protein)
chain: MAPSRANTSVIVVGGGGTIGSSTALHLVRSGYTPSNVTVLDAYPIPSSQSAGNDLNKIMGVSLRNPVDLQLALEARQMWNEDELFKKFFHNTGRLDCAHGEKDIADLKSGYQALVDAGLDATNEWLDSEDEILKRMPLLSRDQIKGWKAIFSKDGGWLAAAKAINAVGEYLRDQGVRFGFYGAGSFKAPLLAEGVCIGVETVDGTRYYADKVVLAAGAWSPTLVELHEQCVSKAWVYGHIQLTPEEAARYKNSPVVYNGDVGFFFEPNEHGVIKVCDEFPGFTRFKMHQPFGAKAPKRISVPRSHAKHPTDTIPDASDVSIRRAIATFMPQFKNKKMFNQAMCWCTDTADAALLICEHPEWKNFVLATGDSGHSFKLLPNIGKHVVELLEGTLADDLAHAWRWRPGSGDALKSRRSAPAKDLADMPGWNHDKPRANL
B2: PnFX-62D/63H/106K/110L/113K/351S (protein)
chain: MAPSRANTSVIVVGGGGTIGSSTALHLVRSGYTPSNVTVLDAYPIPSSQSAGNDLNKIMGVDHRNPVDLQLALEARQMWNEDELFKKFFHNTGRLDCAHGEKDIAKLKSLYQKLVDAGLDATNEWLDSEDEILKRMPLLSRDQIKGWKAIFSKDGGWLAAAKAINAVGEYLRDQGVRFGFYGAGSFKAPLLAEGVCIGVETVDGTRYYADKVVLAAGAWSPTLVELHEQCVSKAWVYGHIQLTPEEAARYKNSPVVYNGDVGFFFEPNEHGVIKVCDEFPGFTRFKMHQPFGAKAPKRISVPRSHAKHPTDTIPDASDVSIRRAIATFMPQFKNKKMFNQAMCWCTDTADSALLICEHPEWKNFVLATGDSGHSFKLLPNIGKHVVELLEGTLADDLAHAWRWRPGSGDALKSRRSAPAKDLADMPGWNHDKPRANL
B3: PnFX-62D/106K/110L/113K (protein)
chain: MAPSRANTSVIVVGGGGTIGSSTALHLVRSGYTPSNVTVLDAYPIPSSQSAGNDLNKIMGVDLRNPVDLQLALEARQMWNEDELFKKFFHNTGRLDCAHGEKDIAKLKSLYQKLVDAGLDATNEWLDSEDEILKRMPLLSRDQIKGWKAIFSKDGGWLAAAKAINAVGEYLRDQGVRFGFYGAGSFKAPLLAEGVCIGVETVDGTRYYADKVVLAAGAWSPTLVELHEQCVSKAWVYGHIQLTPEEAARYKNSPVVYNGDVGFFFEPNEHGVIKVCDEFPGFTRFKMHQPFGAKAPKRISVPRSHAKHPTDTIPDASDVSIRRAIATFMPQFKNKKMFNQAMCWCTDTADAALLICEHPEWKNFVLATGDSGHSFKLLPNIGKHVVELLEGTLADDLAHAWRWRPGSGDALKSRRSAPAKDLADMPGWNHDKPRANL
B4: AnFX (protein)
chain: MTPRANTKIIVVGGGGTMGSSTALHLLRAGYTPSNITVLDTCPIPSAQSAGYDLNKIMGIRLRNKPDLQLSLEALDMWKNDPLFKPFFHNVGMIDVSSTEEGIEGLRKKYQSLLDAGIGLEKTNFMLESEDEILAKAPHFTQEQIKGWKGLFCGDGGWLAAAKAINAIGQFLKEQGVKFGFGGAGTFKKPLFADAHEKTCIGVETVDGTKYYADKVVLAAGAWSSTLVDLEEQCVSKAWVFAHIQLTPAEAAAYKNTPVIYDGDYGFFFEPNENGIIKVCDEFPGFTHFKMHQPYGSPAPKPISVPRSHAKHPTDTYPHASEVTIKKAINRFLPRFNDKELFNRAMCWCTDTADANLLVCEHPRWKGFYLATGDSGHSFKLLPNIGKHVVELLEERLESVFKDAWRWRPGSGDALKSRRAAPAKDLADMPGWRNEAKM
B5: AnFX-61D/105K/109L (protein)
chain: MTPRANTKIIVVGGGGTMGSSTALHLLRAGYTPSNITVLDTCPIPSAQSAGYDLNKIMGIDLRNKPDLQLSLEALDMWKNDPLFKPFFHNVGMIDVSSTEEGIEKLRKLYQSLLDAGIGLEKTNFMLESEDEILAKAPHFTQEQIKGWKGLFCGDGGWLAAAKAINAIGQFLKEQGVKFGFGGAGTFKKPLFADAHEKTCIGVETVDGTKYYADKVVLAAGAWSSTLVDLEEQCVSKAWVFAHIQLTPAEAAAYKNTPVIYDGDYGFFFEPNENGIIKVCDEFPGFTHFKMHQPYGSPAPKPISVPRSHAKHPTDTYPHASEVTIKKAINRFLPRFNDKELFNRAMCWCTDTADANLLVCEHPRWKGFYLATGDSGHSFKLLPNIGKHVVELLEERLESVFKDAWRWRPGSGDALKSRRAAPAKDLADMPGWRNEAKM
B6: AnFX-61D/62H/101K/105K/109L/112K/355S (protein)
chain: MTPRANTKIIVVGGGGTMGSSTALHLLRAGYTPSNITVLDTCPIPSAQSAGYDLNKIMGIDHRNKPDLQLSLEALDMWKNDPLFKPFFHNVGMIDVSSTEKGIEKLRKLYQKLLDAGIGLEKTNFMLESEDEILAKAPHFTQEQIKGWKGLFCGDGGWLAAAKAINAIGQFLKEQGVKFGFGGAGTFKKPLFADAHEKTCIGVETVDGTKYYADKVVLAAGAWSSTLVDLEEQCVSKAWVFAHIQLTPAEAAAYKNTPVIYDGDYGFFFEPNENGIIKVCDEFPGFTHFKMHQPYGSPAPKPISVPRSHAKHPTDTYPHASEVTIKKAINRFLPRFNDKELFNRAMCWCTDTADSNLLVCEHPRWKGFYLATGDSGHSFKLLPNIGKHVVELLEERLESVFKDAWRWRPGSGDALKSRRAAPAKDLADMPGWRNEAKM
B7: NvFX (protein)
chain: MTTPRKETTVLIIGGGGTIGSSTALHLLRAGYTPSNITVLDTYPIPSAQSAGNDLNKIMGIRLRNKVDLQLSLEARDMWRNDALFRPFFHNTGRLDCESSAEGVEGLRREYQKLVEAGVGLEETHEWLDSEEAILEKAPLLQREEIEGWKAIWSEEGGWLAAAKAINAIGEELQRQGVRFGFGGAGSFKRPLFADDGTTCIGVETVDGTQYHADKVVLAAGAWSPALVDLEEQCCSKAWVYAHMQLTPEEAAVYKGCPVVYHGDVGFFFEPNENGVIKVCDEFPGFTRFKQHQPYGAPAPKPVSVPRSHAKHPTDTYPDASEESIKRAVSTFLPRFKDKPLFNRALCWCTDTADSALLICEHPRWKNFILATGDSGHSFKLLPIIGKHVVELVEGRLADDLAEAWRWRPGQGDARKSIRAAPAKDLADMPGWKHDQDSESR
B8: NvFX-62D/106K/110L (protein)
chain: MTTPRKETTVLIIGGGGTIGSSTALHLLRAGYTPSNITVLDTYPIPSAQSAGNDLNKIMGIDLRNKVDLQLSLEARDMWRNDALFRPFFHNTGRLDCESSAEGVEKLRRLYQKLVEAGVGLEETHEWLDSEEAILEKAPLLQREEIEGWKAIWSEEGGWLAAAKAINAIGEELQRQGVRFGFGGAGSFKRPLFADDGTTCIGVETVDGTQYHADKVVLAAGAWSPALVDLEEQCCSKAWVYAHMQLTPEEAAVYKGCPVVYHGDVGFFFEPNENGVIKVCDEFPGFTRFKQHQPYGAPAPKPVSVPRSHAKHPTDTYPDASEESIKRAVSTFLPRFKDKPLFNRALCWCTDTADSALLICEHPRWKNFILATGDSGHSFKLLPIIGKHVVELVEGRLADDLAEAWRWRPGQGDARKSIRAAPAKDLADMPGWKHDQDSESR
B9: EFP-T5 (protein)
chain: MAHSRASTKVVVVGGGGTIGSSTALHLIRSGYTPSNITVLDVYKTPSLQSAGHDLNKIMGIRLRNGPDLQLSLESLDMWQNDELFKPFFHQVGMIDCSSSKEGIENLRRKYQTLLDAGIGLEKTNVWLESEDEILAKAPNFTREQVKGWKGLFCTDGGWLAAAKAINAIGIFLQDKGVKFGFGDAGTFQQPLFAADGKTCIGLETTDGTKYFADKVVLAAGAWSPTLVDLEDQCVSKAWVFAHIQLTPKEADAYKNVPVVYDGEYGFFFEPDEYGVIKVCDEFPGFSRFKLHQPYGAASPKMISVPRSHAKHPTDTYPDASEVTIRKAIARFLPEFKDKELFNRTMCWCTDTADANLLICEHPKWKNFILATGDSGHSFKLLPNIGKYVVELLEGSLSQEMAGAWRWRPGGDALRSRRGAPAKDLAEMPGWKHDAHL
B10: EFP-T5-62D/63H/106K/110L/113K/355S (protein)
chain: MAHSRASTKVVVVGGGGTIGSSTALHLIRSGYTPSNITVLDVYKTPSLQSAGHDLNKIMGIDHRNGPDLQLSLESLDMWQNDELFKPFFHQVGMIDCSSSKEGIEKLRRLYQKLLDAGIGLEKTNVWLESEDEILAKAPNFTREQVKGWKGLFCTDGGWLAAAKAINAIGIFLQDKGVKFGFGDAGTFQQPLFAADGKTCIGLETTDGTKYFADKVVLAAGAWSPTLVDLEDQCVSKAWVFAHIQLTPKEADAYKNVPVVYDGEYGFFFEPDEYGVIKVCDEFPGFSRFKLHQPYGAASPKMISVPRSHAKHPTDTYPDASEVTIRKAIARFLPEFKDKELFNRTMCWCTDTADSNLLICEHPKWKNFILATGDSGHSFKLLPNIGKYVVELLEGSLSQEMAGAWRWRPGGDALRSRRGAPAKDLAEMPGWKHDAHL
B11: EFP-T5-R62D (protein)
chain: MAHSRASTKVVVVGGGGTIGSSTALHLIRSGYTPSNITVLDVYKTPSLQSAGHDLNKIMGIDLRNGPDLQLSLESLDMWQNDELFKPFFHQVGMIDCSSSKEGIENLRRKYQTLLDAGIGLEKTNVWLESEDEILAKAPNFTREQVKGWKGLFCTDGGWLAAAKAINAIGIFLQDKGVKFGFGDAGTFQQPLFAADGKTCIGLETTDGTKYFADKVVLAAGAWSPTLVDLEDQCVSKAWVFAHIQLTPKEADAYKNVPVVYDGEYGFFFEPDEYGVIKVCDEFPGFSRFKLHQPYGAASPKMISVPRSHAKHPTDTYPDASEVTIRKAIARFLPEFKDKELFNRTMCWCTDTADANLLICEHPKWKNFILATGDSGHSFKLLPNIGKYVVELLEGSLSQEMAGAWRWRPGGDALRSRRGAPAKDLAEMPGWKHDAHL
B12: CFP-T7-H2 (protein)
chain: MTSNRADTRVIVVGGGGTIGSSTALHLVRSGYAPANITVLDTFEIPSAQSAGHDLNKIMGIALRNKVDLQMSLEARQMWKEDELFQPFFHNTGRMDCEHTPEGIEDLKKLYQALHDAGAGLEKTHAWLDNEDEILSKMPLLQRDQIQGWKAIWSQDGGWLAAAKAINAIGQFLKERGVKFGFGGAGSFKQPLFDDEGTTCIGVETADGTKYYADKVVLAAGAWSPTLVDLEDQCCSKAWVYAHIQLTPEEAAEYKGVPVVYNGEFGFFFEPDEFGVIKVCDEFPGFSRFKEHQPYGAPSPKRISVPRSHAKHPTDTYPDASEVSIKKAIATFLPRFQDKELFNRALCWCTDTADAALLMCEHPKWKNFILATGDSGHSFKILPNVGKYVVELIEGRLPEEMAYQWRWRPGGDALKSRRAAPPKDLADMPGWKHDPKL

Target: T1, α-fructosyl-valyl-histidyl-leucyl-threon …
In the case of B1, the Specific activity (U/mg), 1 mM αF6P, purified enzyme is reported as 0.0091 U/mg. B2 gave a Specific activity (U/mg), 1 mM αF6P, purified enzyme of 0.667 U/mg. B3 was tested, and the Specific activity (U/mg), 1 mM αF6P, purified enzyme was 0.125 U/mg and the “fold of specific activity on αF6P against PnFX before mutation” value was “specific activity on αF6P was elevated by 13.7 fold”. For B4, the Specific activity (U/mg), 1 mM αF6P, purified enzyme was 0 U/mg. B5 showed a Specific activity (U/mg), 1 mM αF6P, purified enzyme of 0.106 U/mg. B6 showed a Specific activity (U/mg), 1 mM αF6P, purified enzyme of 0.283 U/mg. B7 gave a Specific activity (U/mg), 1 mM αF6P, purified enzyme of 0 U/mg. In the case of B8, the Specific activity (U/mg), 1 mM αF6P, purified enzyme is reported as 0.003 U/mg. Work on B9 yielded a Specific activity (U/mg), 1 mM αF6P, purified enzyme of 0 U/mg. B10 gave a Specific activity (U/mg), 1 mM αF6P, purified enzyme of 1.12 U/mg. B11 gave a Specific activity (U/mg), 1 mM αF6P, purified enzyme of 0.0043 U/mg. B12 gave a αF6P oxidation activity (crude enzyme; αFVH oxidation activity = 100) (relative (αFVH = 100)) of 0.0735, a αF6P/αFV of 0.000536 and a αF6P/αFVH of 0.000735.
